In patent US20210071139A1:

Legend:
[1] = biological target: Ash2l (UniProt Q91X20); assay: anti-TOX IP from EL4 nuclear extract, LC-MS/MS, MiST
[2] = biological target: Dap3 (UniProt Q9ER88); assay: as above
[3] = biological target: Ogdh (UniProt Q60597); assay: as above
[4] = biological target: Rif1 (UniProt Q6PR54); assay: as above
[5] = biological target: Rrp1b (UniProt Q91YK2); assay: as above
[6] = biological target: Snx9 (UniProt Q91VH2); assay: as above
[7] = biological target: Taf6 (UniProt Q62311); assay: as above
[8] = biological target: Zfr (UniProt O88532); assay: as above
[9] = biological target: Acot8 (UniProt P58137); assay: TOX IP-MS, EL4 nuclear extract, MiST
[10] = biological target: Acsl4 (UniProt Q9QUJ7); assay: TOX IP-MS, EL4 nuclear extract, MiST
[11] = biological target: Cdc73 (UniProt Q8JZM7); assay: TOX IP-MS, EL4 nuclear extract, MiST
[12] = biological target: Dmap1 (UniProt Q9JI44); assay: TOX IP-MS, EL4 nuclear extract, MiST
[13] = biological target: Dync1li1 (UniProt Q8R1Q8); assay: TOX IP-MS, EL4 nuclear extract, MiST
[14] = biological target: Hcfc1 (UniProt Q61191); assay: TOX IP-MS, EL4 nuclear extract, MiST
[15] = biological target: Ing4 (UniProt Q8C0D7); assay: TOX IP-MS, EL4 nuclear extract, MiST
[16] = biological target: Mphosph10 (UniProt Q810V0); assay: TOX IP-MS, EL4 nuclear extract, MiST
[17] = biological target: Myef2 (UniProt Q8C854); assay: TOX IP-MS, EL4 nuclear extract, MiST
[18] = biological target: Orc5 (UniProt Q9WUV0); assay: TOX IP-MS, EL4 nuclear extract, MiST
[19] = biological target: Ppie (UniProt Q9QZH3); assay: TOX IP-MS, EL4 nuclear extract, MiST
[20] = biological target: Prrc2c (UniProt Q3TLH4); assay: TOX IP-MS, EL4 nuclear extract, MiST
[21] = biological target: Rbm34 (UniProt Q8C5L7); assay: TOX IP-MS, EL4 nuclear extract, MiST
[22] = biological target: Rcn2 (UniProt Q8BP92); assay: TOX IP-MS, EL4 nuclear extract, MiST
[23] = biological target: Rpl36; Gm8973; assay: TOX IP-MS, EL4 nuclear extract, MiST
[24] = biological target: Rrp8 (UniProt Q9DB85); assay: TOX IP-MS, EL4 nuclear extract, MiST
[25] = biological target: Thoc5 (UniProt Q8BKT7); assay: TOX IP-MS, EL4 nuclear extract, MiST
[26] = biological target: Utp14a (UniProt Q640M1); assay: TOX IP-MS, EL4 nuclear extract, MiST
[27] = biological target: env; assay: TOX IP-MS, EL4 nuclear extract, MiST

How did the Abundance [1] turn out when TOX (from UniProt Q66JW3 1-526) was run?
Its Abundance is 4.44e-06.

And the MiST Score [1]?
The MiST Score was 0.879.

And the Reproducibility [1]?
Its Reproducibility is 0.629.

What about the Specificity [1] of the same substance?
Its Specificity is 1.

What about the Abundance [2] of the same substance?
The Abundance was 2.69e-06.

And the MiST Score [2]?
The MiST Score was 0.859.

And the Reproducibility [2]?
Its Reproducibility is 0.561.

And the Specificity [2]?
The Specificity was 1.

What about the Abundance [3] of the same substance?
Its Abundance is 1.34e-05.

And the MiST Score [3]?
The MiST Score was 0.88.

And the Reproducibility [3]?
The Reproducibility was 0.851.

What about the Specificity [3] of the same substance?
The Specificity was 0.902.

And the Abundance [4]?
Its Abundance is 1.07e-07.

What about the MiST Score [4] of the same substance?
The MiST Score was 0.874.

What about the Reproducibility [4] of the same substance?
Its Reproducibility is 0.611.

What about the Specificity [4] of the same substance?
The Specificity was 1.

And the Abundance [5]?
The Abundance was 4.86e-06.

What about the MiST Score [5] of the same substance?
The MiST Score was 0.875.

And the Reproducibility [5]?
The Reproducibility was 0.955.

And the Specificity [5]?
The Specificity was 0.847.

What about the Abundance [6] of the same substance?
The Abundance was 5.29e-06.

And the MiST Score [6]?
Its MiST Score is 0.877.

What about the Reproducibility [6] of the same substance?
Its Reproducibility is 0.621.

What about the Specificity [6] of the same substance?
The Specificity was 1.

And the Abundance [7]?
Its Abundance is 1.15e-06.

And the MiST Score [7]?
Its MiST Score is 0.864.

What about the Reproducibility [7] of the same substance?
The Reproducibility was 0.578.

And the Specificity [7]?
The Specificity was 1.

And the Abundance [8]?
Its Abundance is 2.44e-06.

And the MiST Score [8]?
The MiST Score was 0.866.

What about the Reproducibility [8] of the same substance?
The Reproducibility was 0.991.

What about the Specificity [8] of the same substance?
Its Specificity is 0.817.

With Tox (from UniProt Q66JW3 1-526) as the substance, how does the Abundance [9] read?
The Abundance was 2.29e-05.

And the MiST Score [9]?
Its MiST Score is 0.989.

And the Reproducibility [9]?
The Reproducibility was 0.983.

What about the Specificity [9] of the same substance?
Its Specificity is 1.

And the Abundance [10]?
The Abundance was 2.9e-06.

And the MiST Score [10]?
The MiST Score was 0.968.

What about the Reproducibility [10] of the same substance?
Its Reproducibility is 0.914.

What about the Specificity [10] of the same substance?
The Specificity was 1.

What about the Abundance [11] of the same substance?
The Abundance was 4.06e-05.

And the MiST Score [11]?
The MiST Score was 0.896.

And the Reproducibility [11]?
The Reproducibility was 0.886.

What about the Specificity [11] of the same substance?
The Specificity was 0.908.

And the Abundance [12]?
The Abundance was 6.59e-06.

What about the MiST Score [12] of the same substance?
Its MiST Score is 0.904.

And the Reproducibility [12]?
Its Reproducibility is 0.709.

And the Specificity [12]?
Its Specificity is 1.

What about the Abundance [13] of the same substance?
The Abundance was 5.91e-06.

What about the MiST Score [13] of the same substance?
Its MiST Score is 0.976.

What about the Reproducibility [13] of the same substance?
The Reproducibility was 0.941.

What about the Specificity [13] of the same substance?
The Specificity was 1.

What about the Abundance [14] of the same substance?
Its Abundance is 4.9e-07.

And the MiST Score [14]?
The MiST Score was 0.964.

And the Reproducibility [14]?
The Reproducibility was 0.901.

What about the Specificity [14] of the same substance?
Its Specificity is 1.

And the Abundance [15]?
The Abundance was 0.00024.

And the MiST Score [15]?
The MiST Score was 0.987.

What about the Reproducibility [15] of the same substance?
The Reproducibility was 0.977.

And the Specificity [15]?
Its Specificity is 1.

And the Abundance [16]?
The Abundance was 1.33e-05.

And the MiST Score [16]?
Its MiST Score is 0.97.

What about the Reproducibility [16] of the same substance?
Its Reproducibility is 0.924.

What about the Specificity [16] of the same substance?
Its Specificity is 1.

And the Abundance [17]?
The Abundance was 3.8e-06.

What about the MiST Score [17] of the same substance?
The MiST Score was 0.993.

And the Reproducibility [17]?
Its Reproducibility is 0.998.

What about the Specificity [17] of the same substance?
The Specificity was 1.

What about the Abundance [18] of the same substance?
Its Abundance is 2.13e-06.

What about the MiST Score [18] of the same substance?
Its MiST Score is 0.985.

And the Reproducibility [18]?
The Reproducibility was 0.971.

What about the Specificity [18] of the same substance?
Its Specificity is 1.

What about the Abundance [19] of the same substance?
Its Abundance is 1.28e-05.

And the MiST Score [19]?
Its MiST Score is 0.979.

What about the Reproducibility [19] of the same substance?
The Reproducibility was 0.953.

What about the Specificity [19] of the same substance?
Its Specificity is 1.

What about the Abundance [20] of the same substance?
Its Abundance is 7.52e-07.

What about the MiST Score [20] of the same substance?
Its MiST Score is 0.905.

What about the Reproducibility [20] of the same substance?
Its Reproducibility is 0.71.

And the Specificity [20]?
The Specificity was 1.

And the Abundance [21]?
The Abundance was 4.09e-05.

What about the MiST Score [21] of the same substance?
The MiST Score was 0.962.

And the Reproducibility [21]?
Its Reproducibility is 0.895.

And the Specificity [21]?
The Specificity was 1.

What about the Abundance [22] of the same substance?
The Abundance was 1.4e-05.

What about the MiST Score [22] of the same substance?
Its MiST Score is 0.992.

What about the Reproducibility [22] of the same substance?
The Reproducibility was 0.993.

And the Specificity [22]?
Its Specificity is 1.

And the Abundance [23]?
The Abundance was 0.00269.

And the MiST Score [23]?
Its MiST Score is 0.928.

And the Reproducibility [23]?
The Reproducibility was 0.855.

What about the Specificity [23] of the same substance?
Its Specificity is 0.969.

What about the Abundance [24] of the same substance?
The Abundance was 4.13e-06.

What about the MiST Score [24] of the same substance?
The MiST Score was 0.969.

And the Reproducibility [24]?
The Reproducibility was 0.919.

And the Specificity [24]?
The Specificity was 1.

What about the Abundance [25] of the same substance?
The Abundance was 3.93e-06.

What about the MiST Score [25] of the same substance?
Its MiST Score is 0.987.

What about the Reproducibility [25] of the same substance?
The Reproducibility was 0.977.

What about the Specificity [25] of the same substance?
Its Specificity is 1.

And the Abundance [26]?
The Abundance was 3.2e-06.

And the MiST Score [26]?
The MiST Score was 0.93.

And the Reproducibility [26]?
The Reproducibility was 0.792.

What about the Specificity [26] of the same substance?
Its Specificity is 1.

And the Abundance [27]?
Its Abundance is 0.000113.

And the MiST Score [27]?
Its MiST Score is 0.977.

And the Reproducibility [27]?
The Reproducibility was 0.946.

What about the Specificity [27] of the same substance?
Its Specificity is 1.
